Data reported in the supplement of paper PMC10567573.

B1: FBXO39 (parent)
chain: PSRVHASEVESAVWYVKKFGRYLE
B2: MNAT1 (parent)
chain: LEEALYEYQPLQIETYGPHVPELE

Variants of: B1
Assay: protein stability index of a GFP-peptide fusion (GPS, HEK-293T) (PSI 1-6); higher = more stable
Details: c terminus: a fixed tail appended
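Also: lentivirally expressed fusions sorted by FACS into six bins by GFP to DsRed ratio, PSI derived from sequencing read proportions per bin multiplied by bin number.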

Protein stability index, by site and new letter:
H5: A 2.11, Y 1.43, D 2.52, W 2.86, F 2.02, T 1.43, N 2.36, K 1.4, E 3.31, C 1.61, Q 2.69, R 1.36, G 2.26, L 2.49, P 2, S 2.05, V 1.68, I 1.39, M 1.86
E8: L 2.36, I 2.11, K 2.76, C 2.27, G 1.7, N 1.56, S 1.68, F 4.46, T 1.7, H 2.38, A 3.81, D 2.08, P 2.75, M 3.03, R 3.41, Q 1.85
S7: L 1.64, C 1.48, M 1.81, D 2.68, W 1.59, G 1.66, N 2.12, P 2.33, F 1.97, V 2.13, E 2.09, Y 2.4, R 1.48, K 1.67, H 2.24, A 2.22, I 1.84, T 1.77, Q 2.36
A6: N 1.74, R 1.56, H 1.76, C 2.08, P 1.82, V 1.7, T 2.4, G 1.97, K 1.79, Q 2.11, F 3.3, S 2.72, D 2.46, Y 1.58, E 2.32, M 1.27, L 2.24, I 2.06, W 2.48
R3: P 2.49, C 1.88, D 2.9, E 2.04, I 2.18, A 2.04, T 3.32, K 1.83, L 1.72, H 1.98, N 2.19, G 2.29, V 2.36, Y 1.58, F 1.49, W 2.4, M 2.54, S 2.1, Q 2.46
V4: Q 2.21, K 1.63, D 2.52, Y 1.34, A 2.29, F 1.54, C 1.49, I 2.39, G 2.19, M 1.97, R 1.8, L 2.22, W 2.06, P 1.92, E 2.52, H 2.25, S 1.58, T 1.65, N 2.13
P1: A 2.45, Y 1.63, C 1.82, G 2.83, K 2.21, I 1.83, V 1.7, S 1.52, M 1.87, W 2.5, T 2.01, D 2.08, L 2.13, F 1.66, N 1.72, H 2.06, R 1.71, E 1.84, Q 3.14
S2: Q 2.18, F 1.64, E 2.29, L 1.63, P 2.05, V 1.46, G 1.94, Y 2.48, D 2.19, K 2.67, T 2.31, H 1.76, R 1.82, I 2.33, A 1.71, M 2.08, N 2.51, W 1.89

Variants of: B2
Assay: as above
Details: c terminus: a fixed tail appended

Protein stability index: each site, then its substitutions
G17: P 2.69, D 2.21, F 2.35, M 1.75, C 1.98, W 1.74, E 3.14, L 1.85, N 2.99, K 2.88, I 2.13, V 2.12, H 3.14, Q 2.53, Y 1.59, S 2.27, A 2.35, T 2.5
P18: I 2.04, Y 2.97, L 2.16, E 2.15, D 2.8, H 2.81, Q 3.3, A 2.74, F 2.17, V 2.39, M 2.01, W 1.18, N 3.31, R 3.78, K 4.11, C 1.91, T 3.02, S 2.6, G 2.96
H19: W 1.5, C 3.3, E 3.27, Y 2.62, F 2.11, A 2.89, N 2.82, V 2.21, P 2.01, K 2.8, M 2.09, I 1.57, Q 2.37, R 3.99, S 2.69, T 3.17, G 2.26, L 2.33, D 2.76
E24: D 3.39, H 2.25, L 2.19, Y 1.39, C 1.76, G 2.03, V 2.19, R 1.95, Q 2.18, A 2.84, W 1.45, N 2.35, T 2.67, P 1.93, M 2.14, F 1.91, K 2.53, I 1.88, S 2.54
V20: E 1.94, W 2.17, Y 2.78, D 2.36, L 2.49, Q 2.92, S 2.57, N 3.23, P 2.21, H 2.1, C 2.15, G 3.45, M 2.57, A 3.26, F 2.36, K 3.23, R 2.58, T 2.38, I 2.4
Y16: C 3.84, F 3.49, M 3.79, E 4.13, H 3.15, K 4.34, P 4.94, N 4.7, W 2.49, I 3.61, A 4.54, V 3.19, L 4.15, G 4.52, Q 4.33, T 4.09, S 4.27, R 3.19, D 5.37
L23: Y 2.89, E 4.12, F 2.87, D 4.02, T 2.6, W 2.84, M 3.2, P 3.19, K 3.59, A 3.56, V 2.81, G 3.55, I 2.53, S 3.48, N 3.34, H 3.29, R 3.99, Q 2.98, C 3.16
P21: I 2.2, G 1.97, L 2.79, N 2.47, E 3.67, H 2.58, A 2.92, Y 1.75, C 3.78, D 3.3, K 3.01, R 2.96, V 2.19, M 2.53, Q 3.42, F 1.44, T 2.56, S 2.41, W 1.75
T15: P 4.55, V 1.7, I 1.61, G 4.13, M 2.32, R 4.41, L 1.82, H 3.91, Y 2.01, K 4.14, Q 4.09, S 3.54, E 4.43, F 1.75, W 2.2, N 4.13
E22: V 2.56, I 1.84, D 2.46, M 2.35, P 2.28, N 2.31, F 1.97, G 2.43, S 2.4, K 2.31, L 2.35, Y 2.49, W 1.54, H 2.2, C 3.71, Q 2.54, R 2.35, A 2.47, T 2.56
